Experimental data as given in article PMC7943601.

Molecular target: PrgJ (S. enterica sv. Typhimurium (endogenous in SB905)) (UniProt P41785)
Experiment: cryo-EM structure

Sequence of PrgJ (P41785 whole entry): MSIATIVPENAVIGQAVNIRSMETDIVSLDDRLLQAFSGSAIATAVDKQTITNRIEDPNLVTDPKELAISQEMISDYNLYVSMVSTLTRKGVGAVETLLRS

Substance: PrgJ (from UniProt P41785 1-101) (natural protein)
- stoichiometry N: 6
